The values below come from paper doi:10.1101/2022.03.04.482944 (bioRxiv, 2022).

Common to all, as to test: Ligand Surface Binding Assay
The target of one assay is T1, BMPR2-Halo (human, UniProt Q13873 27-1038).
T1 sequence (looked up): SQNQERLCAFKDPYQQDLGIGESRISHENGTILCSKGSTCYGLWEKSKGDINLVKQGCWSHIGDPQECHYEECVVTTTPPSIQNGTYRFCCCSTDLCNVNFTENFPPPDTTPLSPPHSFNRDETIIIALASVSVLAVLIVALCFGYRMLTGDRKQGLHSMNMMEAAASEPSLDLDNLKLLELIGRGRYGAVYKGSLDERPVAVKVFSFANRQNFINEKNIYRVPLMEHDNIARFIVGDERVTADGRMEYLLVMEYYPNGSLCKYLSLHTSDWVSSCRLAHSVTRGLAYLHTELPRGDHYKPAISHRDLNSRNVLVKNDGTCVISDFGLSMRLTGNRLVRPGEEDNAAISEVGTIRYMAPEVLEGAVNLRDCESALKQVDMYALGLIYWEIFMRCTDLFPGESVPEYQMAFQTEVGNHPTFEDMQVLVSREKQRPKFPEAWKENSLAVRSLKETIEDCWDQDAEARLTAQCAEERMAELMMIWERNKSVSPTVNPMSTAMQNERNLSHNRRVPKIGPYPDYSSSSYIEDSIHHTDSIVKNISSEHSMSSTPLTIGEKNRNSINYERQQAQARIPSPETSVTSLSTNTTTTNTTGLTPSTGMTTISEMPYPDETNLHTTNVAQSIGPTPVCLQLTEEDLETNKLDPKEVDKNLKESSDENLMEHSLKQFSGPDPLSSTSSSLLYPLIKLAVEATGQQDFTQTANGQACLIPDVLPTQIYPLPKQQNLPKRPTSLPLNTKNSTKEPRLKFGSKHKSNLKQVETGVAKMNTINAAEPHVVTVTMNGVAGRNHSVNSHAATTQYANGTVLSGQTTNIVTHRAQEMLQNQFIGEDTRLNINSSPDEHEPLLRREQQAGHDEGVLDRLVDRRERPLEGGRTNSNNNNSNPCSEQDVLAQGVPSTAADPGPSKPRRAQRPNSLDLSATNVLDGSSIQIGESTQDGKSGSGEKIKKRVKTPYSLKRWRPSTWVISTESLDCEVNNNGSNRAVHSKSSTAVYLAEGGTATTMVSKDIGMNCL

The target of another assay is ACVR2B-Halo (human, UniProt Q13705 19-512).
A further assay concerns the target ACVR2A-Halo (human, UniProt P27037 20-513).

ACVR2B-Halo, sequence (Q13705 19-512): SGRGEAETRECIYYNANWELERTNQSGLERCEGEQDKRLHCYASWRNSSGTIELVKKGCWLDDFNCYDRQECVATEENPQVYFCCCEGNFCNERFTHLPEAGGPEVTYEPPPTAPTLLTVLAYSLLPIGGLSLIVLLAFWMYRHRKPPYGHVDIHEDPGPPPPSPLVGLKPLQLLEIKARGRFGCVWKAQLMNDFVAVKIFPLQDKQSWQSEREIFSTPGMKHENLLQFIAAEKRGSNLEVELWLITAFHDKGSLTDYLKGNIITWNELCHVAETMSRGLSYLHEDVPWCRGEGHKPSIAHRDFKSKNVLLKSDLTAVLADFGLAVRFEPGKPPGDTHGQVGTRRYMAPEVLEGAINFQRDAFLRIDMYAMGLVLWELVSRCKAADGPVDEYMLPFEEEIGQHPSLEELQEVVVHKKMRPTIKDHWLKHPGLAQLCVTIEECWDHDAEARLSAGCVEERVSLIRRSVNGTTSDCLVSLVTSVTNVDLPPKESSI
ACVR2A-Halo, sequence (P27037 20-513): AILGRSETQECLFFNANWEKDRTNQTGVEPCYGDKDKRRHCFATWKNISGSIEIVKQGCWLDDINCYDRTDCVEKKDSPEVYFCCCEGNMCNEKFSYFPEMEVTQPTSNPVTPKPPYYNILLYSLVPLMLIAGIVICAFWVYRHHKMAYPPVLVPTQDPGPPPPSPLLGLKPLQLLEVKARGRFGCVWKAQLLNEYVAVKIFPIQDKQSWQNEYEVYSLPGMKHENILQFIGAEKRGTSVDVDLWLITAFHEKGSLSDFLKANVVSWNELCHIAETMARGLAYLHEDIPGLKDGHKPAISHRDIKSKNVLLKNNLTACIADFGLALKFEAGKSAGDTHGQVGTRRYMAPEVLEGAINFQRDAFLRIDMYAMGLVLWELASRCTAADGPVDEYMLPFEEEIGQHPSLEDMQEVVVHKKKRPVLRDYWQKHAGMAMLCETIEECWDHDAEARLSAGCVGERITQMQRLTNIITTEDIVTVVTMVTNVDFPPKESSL

B1: Activin A-Cy5 (ligand, UniProt P08476 311-426, looked up)
chain: GLECDGKVNICCKKQFFVSFKDIGWNDWIIAPSGYHANYCEGECPSHIAGTSGSSLSFHSTVINHYRMRGHSPFANLKSCCVPTKLRPMSMLYYDDGQNIIKKDIQNMIVEECGCS
modifications: Cy5 label (NHS-activated Cy5, protein:dye ratio 1:2 in the labelling reaction)
With B1, the “fold Activin A-Cy5 binding relative to untransfected cells” value in the assay with BMPR2-Halo was about 27 fold; with ACVR2B-Halo it was about 84 fold; in the assay with ACVR2A-Halo it was about 29 fold.
